For one assay, the target named is β-arrestin2 (βarr2). In words: β-arrestin2 recruitment dose-response (method not named for this panel; panel d of the same figure is NanoBiT). Particulars: agonist CCL15M (CCL15 27-92) at 1e-6 M (highest dose); parent: est. 100; read off a plot. For orientation: Arrestin recruitment assays detect the binding of arrestin to an activated receptor.
In assay [1] the target is T1, wild-type full-length human CCR1 fused with LgBiT at the C terminus (cryo-EM construct) (human, UniProt P32246 1-355).
T1 construct: chemokine receptor CCR1, human, wild type, full length; Expressed with a chemokine (CCL15 (26–92), CCL15 (27–92), or CCL3 (4–69) for the apo complex) fused to its N terminus by a GS linker with a TEV site; the linker was cut with TEV protease and 2*MBP removed with 3C protease; Also used here as the target of the functional rows on wild-type CCR1 in cells, whose construct for the G protein …
T1 sequence (looked up): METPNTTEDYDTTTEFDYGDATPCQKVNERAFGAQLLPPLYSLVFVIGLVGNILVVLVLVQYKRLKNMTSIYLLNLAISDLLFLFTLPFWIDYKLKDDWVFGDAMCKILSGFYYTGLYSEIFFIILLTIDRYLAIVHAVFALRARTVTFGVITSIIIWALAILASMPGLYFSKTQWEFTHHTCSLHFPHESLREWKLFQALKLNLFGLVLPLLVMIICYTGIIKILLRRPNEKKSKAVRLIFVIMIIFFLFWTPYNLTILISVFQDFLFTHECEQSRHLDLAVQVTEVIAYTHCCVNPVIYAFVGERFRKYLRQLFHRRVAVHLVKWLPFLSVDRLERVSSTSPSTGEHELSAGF
The experiment in a line: cryo-EM structure; CCL15-bound CCR1–Gi complexes (CCL15^L, CCL15^M); chemokine expressed fused to CCR1 and cut with TEV; co-expressed with Gi in SF9; NanoBiT tethering of CCR1-LgBiT and Gβ1-SmBiT; scFv16 added; 20 mM HEPES pH 7.5, 100 mM NaCl, LMNG/CHS/GDN. Particulars: both partners purified.

Results on four molecules are retold here after article PMC8885419, “Identification and mechanism of G protein-biased ligands for chemokine receptor CCR1” (Nature Chemical Biology, 2021).

On to “CCR1 (1–327 aa) with LgBiT at the C terminal (from UniProt P32246) Y113F; Y255F”, for which the percent of parent (% wild-type/CCL15M max) in the assay with β-arrestin2 (βarr2) was determined as 85.
Turning to “CCR1 (1–327 aa) with LgBiT at the C terminal (from UniProt P32246) T86A; W90A”, in the assay with β-arrestin2 (βarr2), the percent of parent (% wild-type/CCL15M max) was found to be 81.

B1: CCL15 (27–92) (ligand, human, UniProt Q16663 48-113, looked up)
chain: HFAADCCTSYISQSIPCSLMKSYFETSSECSKPGVIFLTKKGRQVCAKPSGPGVQDCMKKLKPYSI
notes: chemokine CCL15, human, residues 27–92 of CCL15 (1–92); In the cryo-EM sample residues of the GS/TEV linker may remain at the C terminus; also called CCL15^M; medium form CCL15; source: SF9 insect cells, expressed fused to the N terminus of CCR1, cut with TEV protease, purified in the complex
As for B1, the binding result in assay [1] is reported as “binds”.

B2: CCL15 (26–92) (ligand, human, UniProt Q16663 47-113, looked up)
chain: FHFAADCCTSYISQSIPCSLMKSYFETSSECSKPGVIFLTKKGRQVCAKPSGPGVQDCMKKLKPYSI
notes: chemokine CCL15, human, residues 26–92 of CCL15 (1–92), first residue F26; also called CCL15^L; long form CCL15; source: SF9 insect cells, expressed fused to the N terminus of CCR1, cut with TEV protease, purified in the complex
Turning to B2, the binding result in assay [1] is on record as “binds”.
